The results in this text go back to patent US10400249B2, “HPPD variants and methods of use” (priority 2014, dated 2019).

Where a chain is given by its changes, count along the chain named. Numbers in names are those of the source.

Data set [1] relates to Pseudomonas fluorescens HPPD protein. Kind of data set: HGD assay: HPPD activity coupled to HGA dioxygenase, pI50 and type of inhibition (time-course). In kind it is biochemical. The conditions noted are these: for pI50-values of Cmpd. 2: assay not given, follows the time-course analysis (HGD assay). The method, then:
(§1) HPPD proteins were produced and purified as described in WO2011/076882. The activity of HPPD proteins in absence or presence of HPPD inhibitors was determined using either the so called OD assay or the HGD assay.
(§2) • a) The OD assay: The HPPD activity was determined colourimetrically by measuring the amount of HPP remaining in the assay mixture at the end of the incubation period after derivatisation of HPP with 2,4-dinitrophenylhydrazine (DNP) to form an amber-brown colored 2,4-dinitrophenylhydrazone under alkaline conditions. The assay was carried out at room temperature in Greiner F-bottom 96 well microplates. The assay mixture contained 50 mM Tris-HCl pH 7.8, 0.5 mM HPP, 10 mM ascorbate, 650 units of catalase and appropriate amounts of purified HPPD enzyme in a total assay volume of 100 μl. The reaction was started by the addition of enzyme. After an incubation time of 24 minutes, the reaction was stopped by the addition of 50 μl of a solution of 0.04% DNP dissolved in 3.8 N HCl. After a further 15-minute incubation period 100 μl of a 5 N KOH solution was added to the reaction mixture and the amount of unconsumed HPP was measured photometrically at 405 nm. Enzyme activity was calculated as the difference in E405 between assays lacking enzyme (negative control) and the enzyme containing assays (ΔE405=E405(negative control)−E405). Enzyme activity (nmol substrate consumed per min) was calculated from a calibration curve generated from HPP. pI50-values (the negative log value of the concentration of inhibitor necessary to inhibit 50% of the enzyme activity in molar concentration were determined from dose-response plots of HPPD activity versus inhibitor concentration tested (5.0×10^−6, 1.0×10^−5, 2.5×10^−5, 4.0×10^−5, 7.0×10^−5, 1.0×10^−4, 2.0×10^−4 and 5.0×10^−4M) using the 4 Parameter Logistic Model or Sigmoidal Dose-Response Model of the ID Business Solutions Ltd. XLfit software suite. The result “>5.6” means that the inhibition at the lowest inhibitor concentration tested was higher than 85% and the pI50-value could therefore not be precisely calculated within in the range of concentration of inhibitor tested. The result “<2.5” means that the inhibition at the highest inhibitor concentration tested was lower than 25% and the pI50-value could therefore not be precisely calculated within in the range of concentration of inhibitor tested. “n.d.” means not determined. • b) The HGD assay: With the HGD assay HPPD activity was measured at room temperature by adding appropriate amounts of HPPD to a solution of 200 mM Tris-HCl pH 7.6, 10 mM ascorbate, 20 μM FeSO4, 650 units of catalase, 8 μg HGA dioxygenase (HGA: homogentisate) and 600 μM HPP in a total volume of 1 ml. Initial reaction rates in the absence or presence of inhibitors were determined from the increase in absorbance at 318 nm due to the formation of maleylacetoacetate (ε318=11,900 M−1 cm-1). pI50-values (the negative log value of the concentration of inhibitor necessary to inhibit 50% of the enzyme activity in molar concentration were determined from dose-response plots of HPPD activity versus inhibitor concentration tested using the 4 Parameter Logistic Model or Sigmoidal Dose-Response Model of the ID Business Solutions Ltd. XLfit software suite. Due to the UV absorption of the HPPD inhibitors tested, inhibitor concentrations >100 μM could not be tested. The result “<4” means that the inhibition at 100 μM inhibitor concentration was lower than 25% and the pI50-value could therefore not be precisely calculated within in the range of concentration of inhibitor tested. “n.d.” means not determined. The HGD assay allowed to continuously follow HPPD-catalyzed HGA formation over time was therefore used to determine the inhibition type of the HPPD inhibitors tested. […] When in the presence of an inhibitor the HPPD activity was inhibited but the inhibition was found not to […] in a time-dependent manner, the inhibitor was called reversible (abbreviation “rev”). […]

The test system is the same in data set [2]. Kind of data set: OD assay: HPPD activity and pI50 from HPP remaining after derivatisation with DNP. In kind it is biochemical. The conditions noted are these: for Activity DeltaE/24 min μg Protein: HPPD enzyme activity of the clone; for tolerance (pI50) Cmpd. 2: inhibitor Cmpd. 2; for tolerance (pI50) DKN: inhibitor diketonitrile (DKN), negative log of molar concentration; for tolerance (pI50) MST: inhibitor mesotrione (MST); for tolerance (pI50) TBT: inhibitor tembotrione (TBT). As to the method:
as §1, §2

B1: K357: PfHPPD variant A188G, R189C, E335P, G336F, A340E (protein)
chain: MADLYENPMGLMGFEFIEFASPTPGTLEPIFEIMGFTKVATHRSKNVHLYRQGEINLILNNEPNSIASYFAAEHGPSVCGMAFRVKDSQKAYNRALELGAQPIHIDTGPMELNLPAIKGIGGAPLYLIDRFGEGSSIYDIDFVYLEGVERNPVGAGLKVIDHLTHNVYRGRMVYWANFYEKLFNFREGCYFDIKGEYTGLTSKAMSAPDGMIRIPLNEESSKGAGQIEEFLMQFNGEGIQHVAFLTDDLVKTWDALKKIGMRFMTAPPDTYYEMLEGRLPDHGEPVDQLQARGILLDGSSVEGDKRLLLQIFSETLMGPVFFEFIQRKGDDGFGPFNFKELFESIERDQVRRGVLTAD
modifications: HPPD variant - K357
notes: PfHPPD variant A188G, R189C, E335P, G336F, A340E
Consider B1, for which, in data set [1], the “mechanism of inhibition by Cmpd. 2, time-course of inhibition” value (“mechanism of inhibition” below) is listed as “fully reversible inhibitor” and the “pI50-values of Cmpd. 2” value is listed as 5.1. Besides, in data set [2], the “Activity DeltaE/24 min μg Protein” value is 0.47 DeltaE/24 min μg Protein, the “tolerance (pI50) Cmpd. 2” value turned out to be 5.4, the “tolerance (pI50) DKN” value was found to be 3.5 and the “tolerance (pI50) MST” value turned out to be 4.1. In data set [2], the “tolerance (pI50) TBT” value is 5.3.

B2: K304: PfHPPD variant L200M, P215L, E335P, G336F, A340E (protein)
chain: B1 chain with G188A, C189R, L200M, P215L
modifications: HPPD variant - K304
notes: PfHPPD variant L200M, P215L, E335P, G336F, A340E
As for B2, in data set [1], the “mechanism of inhibition” value is “fully reversible inhibitor” and the “pI50-values of Cmpd. 2” value is 4.7. In data set [2], the “Activity DeltaE/24 min μg Protein” value was 0.011 DeltaE/24 min μg Protein, the “tolerance (pI50) Cmpd. 2” value is reported as 4.6, the “tolerance (pI50) MST” value is listed as 3.2 and the “tolerance (pI50) TBT” value worked out at 4.2.

B3: K360: PfHPPD variant L200I, E335P, G336F, A340E (protein)
chain: B1 chain with G188A, C189R, L200I
modifications: HPPD variant - K360
notes: PfHPPD variant L200I, E335P, G336F, A340E
Take B3: in data set [1], the “mechanism of inhibition” value is “fully reversible inhibitor” and the “pI50-values of Cmpd. 2” value came out at 5.5. Also, in data set [2], the “Activity DeltaE/24 min μg Protein” value worked out at 0.28 DeltaE/24 min μg Protein, the “tolerance (pI50) Cmpd. 2” value is 5.3, the “tolerance (pI50) DKN” value worked out at 3.6 and the “tolerance (pI50) MST” value is listed as 4.3. Besides, the “tolerance (pI50) TBT” value in data set [2] worked out at 5.3.

B4: K361: PfHPPD variant L200M, E335P, G336F, A340E (protein)
chain: B1 chain with G188A, C189R, L200M
modifications: HPPD variant - K361
notes: PfHPPD variant L200M, E335P, G336F, A340E
For the molecule B4, in data set [1], the “mechanism of inhibition” value is “fully reversible inhibitor” and the “pI50-values of Cmpd. 2” value came out at 5.3. Besides, in data set [2], the “Activity DeltaE/24 min μg Protein” value is recorded as 0.21 DeltaE/24 min μg Protein, the “tolerance (pI50) Cmpd. 2” value stood at 5.2, the “tolerance (pI50) DKN” value was found to be 3.4 and the “tolerance (pI50) MST” value is recorded as 4.0. The “tolerance (pI50) TBT” value in data set [2] was determined as 5.1.

B5: K303: PfHPPD variant L200I, P215L, E335P, G336F, A340E (protein)
chain: B1 chain with G188A, C189R, L200I, P215L
modifications: HPPD variant - K303
notes: PfHPPD variant L200I, P215L, E335P, G336F, A340E
Turning to B5, in data set [1], the “mechanism of inhibition” value was “fully reversible inhibitor” and the “pI50-values of Cmpd. 2” value worked out at 5.0. Further, in data set [2], the “Activity DeltaE/24 min μg Protein” value was 0.008 DeltaE/24 min μg Protein, the “tolerance (pI50) Cmpd. 2” value was 4.6, the “tolerance (pI50) MST” value was 3.2 and the “tolerance (pI50) TBT” value came to 4.2.
